Substrate in the data set: [H][C@]12CC=C3[C@]4([H])CC(C)(C)CC[C@]4(C(=O)O[C@@H]4O[C@H](CO)[C@H](O)[C@H](O)[C@H]4O)CC[C@@]3(C)[C@]1(C)CC[C@@]1([H])C(C)(C)[C@@H](OC(=O)CN3CCN(c4cc(O/N=[N+](/[O-])N(C)CCO)c([N+](=O)[O-])cc4[N+](=O)[O-])CC3)CC[C@]21C
The data set can be described thus: Activity at GSTpi (unknown origin) by Michaelis-Menten equation. The class given is ADME, Homo sapiens.

B1: Glutathione S-transferase P (Homo sapiens) (protein)
chain: MPPYTVVYFPVRGRCAALRMLLADQGQSWKEEVVTVETWQEGSLKASCLYGQLPKFQDGDLTLYQSNTILRHLGRTLGLYGKDQQEAALVDMVNDGVEDLRCKYISLIYTNYEAGKDDYVKALPGQLKPFETLLSQNQGGKTFIVGDQISFADYNLLDLLLIHEVLAPGCLDAFPLLSAYVGRLSARPKLKAFLASPEYVNLPINGNGKQ
As usually defined, the Km is the concentration of substrate that gives half-maximal velocity. The term Vmax denotes the rate approached at saturating substrate. By kcat is commonly meant the number of substrate molecules converted per active site and unit of time at saturation. A word on the kcat/Km: it is the second-order rate constant that governs catalysis at low substrate concentration. Take B1: the Michaelis constant (Km) was found to be 342 µM, the Vmax came to 15.1 µmol/min, the kcat stood at 6.95 s⁻¹ and the kcat/Km worked out at 20100 M⁻¹ s⁻¹.

For the origin of these results see ChEMBL document CHEMBL2396531, “Hybrid molecule from O2-(2,4-dinitrophenyl)diazeniumdiolate and oleanolic acid: a glutathione S-transferase π-activated nitric oxide prodrug with selective anti-human hepatocellular carcinoma activity and improved stability” (J Med Chem, 2013).
